Measurements as given in paper PMC10564622 (Free Radical Biology & Medicine, 2023).
“And” between values parts separate entries of the source, which are not always exact repeats. Identical values can stand only once.

Legend:
Settings in all cases: both partners purified
AF488-labeled CUL3NTD [1] = molecular target: T1, AF488-labeled CUL3NTD (human, UniProt Q13618 1-388, I342R | L346D, AF488 by direct acylation with AF488-Tfp (sites not given)); experiment: FRET or BRET; TR-FRET protein displacement assay: CoraFluor-1-labeled KLHL11_(BTB-BACK) + AF488-labeled CUL3NTD, unlabeled protein titrated (cmax 25 μM); assay buffer pH 7.5, 2 h, room temperature; KD from IC50 by Cheng-Prusoff
T1 construct: human CUL3, Uniprot Q13618, residues 1–388, vector pNIC-CTHF, with stabilising mutations I342R and L346D; also called AF488-CUL3NTD; source: E. coli BL21(DE3)-pRARE2, purified (nickel sepharose, TEV cleavage, SEC), labeled with AF488-Tfp; not shown: His6, C-terminal, cleaved; FLAG, C-terminal, cleaved
T1 sequence (Q13618 1-388 I342R/L346D): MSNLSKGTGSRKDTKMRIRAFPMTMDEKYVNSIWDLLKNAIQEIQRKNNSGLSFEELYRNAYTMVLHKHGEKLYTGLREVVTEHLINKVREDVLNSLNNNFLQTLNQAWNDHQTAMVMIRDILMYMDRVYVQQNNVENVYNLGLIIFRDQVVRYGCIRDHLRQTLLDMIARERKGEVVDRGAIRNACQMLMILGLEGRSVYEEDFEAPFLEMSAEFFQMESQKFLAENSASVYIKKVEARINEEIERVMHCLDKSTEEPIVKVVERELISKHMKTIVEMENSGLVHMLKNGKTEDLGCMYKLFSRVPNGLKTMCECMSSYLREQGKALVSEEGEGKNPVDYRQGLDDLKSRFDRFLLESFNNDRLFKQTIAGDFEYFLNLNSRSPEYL

[2] = molecular target: T2, CUL3NTD (CUL3 N-terminal domain, residues 1–388, I342R L346D) (human, UniProt Q13618 1-388, I342R | L346D); experiment: crystal structure; KEAP1_(BTB-3-box) and CUL3NTD mixed 1:1, purified by SEC; sitting drop at 20 °C, 20% PEG 3350, 10% ethylene glycol, 0.2 M potassium citrate tribasic; 3.45 Å, space group C2 2 2_(1)
T2 construct: human CUL3, Uniprot Q13618, residues 1–388, vector pNIC-CTHF, with stabilising mutations I342R and L346D (split-n-express); source: E. coli BL21(DE3)-pRARE2, purified (nickel sepharose, TEV cleavage, SEC); not shown: His6, C-terminal, cleaved; FLAG, C-terminal, cleaved
T2 sequence (Q13618 1-388 I342R/L346D): as above

AF488-labeled CUL3NTD [3] = molecular target: T1, AF488-labeled CUL3NTD; experiment: FRET or BRET; TR-FRET protein displacement assay: CoraFluor-1-labeled KEAP1FL + AF488-labeled CUL3NTD, unlabeled protein titrated (cmax 25 μM); assay buffer pH 7.5, 2 h, room temperature; KD from IC50 by Cheng-Prusoff
[4] = molecular target: biotinylated CUL3NTD (residues 1–389) (human, UniProt Q13618 1-389, I342R | L346D, biotin (on the avi tag)); experiment: BLI; biotinylated CUL3NTD immobilised on streptavidin tips, KEAP1_(BTB-3-box) in serial dilution; 50 mM HEPES, 300 mM NaCl, 0.5 mM TCEP, 10 mM DTT, 0.01% TWEEN-20; steady-state and kinetic fits, 1:1 model; apparent
Chain of biotinylated CUL3NTD (residues 1–389) (Q13618 1-389 I342R/L346D): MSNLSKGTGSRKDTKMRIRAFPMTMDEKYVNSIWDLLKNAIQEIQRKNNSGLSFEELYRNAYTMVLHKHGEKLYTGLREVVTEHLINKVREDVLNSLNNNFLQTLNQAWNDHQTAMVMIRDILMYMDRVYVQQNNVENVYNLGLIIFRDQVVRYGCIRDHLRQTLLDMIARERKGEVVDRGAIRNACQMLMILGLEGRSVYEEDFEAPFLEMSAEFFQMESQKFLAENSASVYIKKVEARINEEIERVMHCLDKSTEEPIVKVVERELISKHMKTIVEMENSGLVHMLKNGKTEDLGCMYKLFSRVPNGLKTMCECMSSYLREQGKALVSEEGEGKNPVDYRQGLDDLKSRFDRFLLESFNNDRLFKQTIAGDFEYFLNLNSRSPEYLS

Kd (AF488-labeled CUL3NTD [1]): 720 nM | stoichiometry N [2]: 1 KEAP1 per CUL3 (printed as 2:2) | Kd (AF488-labeled CUL3NTD [3]): 1040 nM | Kd [4]: 1700 nM and 1400 nM
B1: KEAP1_(BTB-3-box) (human KEAP1 residues 48–213) (domain or fragment, UniProt Q14145 48-213, looked up)
chain: GNRTFSYTLEDHTKQAFGIMNELRLSQQLCDVTLQVKYQDAPAAQFMAHKVVLASSSPVFKAMFTNGLREQGMEVVSIEGIHPKVMERLIEFAYTASISMGEKCVLHVMNGAVMYQIDSVVRACSDFLVQQLDPSNAIGIANFAEQIGCVELHQRAREYIYMHFGE
notes: human KEAP1 (KLHL19), Uniprot Q14145, residues 48–213 (BTB and 3-box), vector pNIC28-Bsa4; Homodimer through the BTB domain by crystallographic symmetry; Residues 51–204 modelled in the structure; also called BTB and 3-box domains of human KEAP1; source: E. coli BL21(DE3)-pRARE2, purified (nickel sepharose, TEV cleavage, SEC); not shown: His6, N-terminal, cleaved
